Measurements from US20230218753A1.

Legend:
[1] = target: activated human complement C1s (UniProt P09871); experiment: competition binding with 50 pM biotinylated TNT005
[2] = target: activated human complement C1s (UniProt P09871); experiment: direct binding

activated human complement C1s, sequence (P09871 16-688): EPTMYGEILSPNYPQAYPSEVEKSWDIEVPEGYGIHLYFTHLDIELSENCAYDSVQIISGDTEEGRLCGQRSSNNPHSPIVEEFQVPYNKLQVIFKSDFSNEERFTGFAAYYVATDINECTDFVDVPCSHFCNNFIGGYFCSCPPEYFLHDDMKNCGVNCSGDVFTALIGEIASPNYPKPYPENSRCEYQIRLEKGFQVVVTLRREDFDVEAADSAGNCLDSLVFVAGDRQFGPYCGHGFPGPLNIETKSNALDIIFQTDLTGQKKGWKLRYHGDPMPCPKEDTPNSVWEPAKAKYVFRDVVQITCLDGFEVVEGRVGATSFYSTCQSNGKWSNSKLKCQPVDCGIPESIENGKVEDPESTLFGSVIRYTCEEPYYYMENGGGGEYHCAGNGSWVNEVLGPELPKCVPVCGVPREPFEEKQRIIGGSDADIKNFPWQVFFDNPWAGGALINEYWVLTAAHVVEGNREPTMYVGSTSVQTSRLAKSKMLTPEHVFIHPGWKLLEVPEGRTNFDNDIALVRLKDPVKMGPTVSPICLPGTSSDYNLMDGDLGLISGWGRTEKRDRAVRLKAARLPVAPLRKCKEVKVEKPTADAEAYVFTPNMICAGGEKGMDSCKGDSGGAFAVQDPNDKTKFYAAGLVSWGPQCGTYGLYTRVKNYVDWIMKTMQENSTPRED

Substance: TNT005
- IC50 [1]: 0.0395 nM
- EC50 [2]: 0.0559 nM
